This note sets out measurements from the supplement of paper PMC12042874.

± gives the uncertainty stated by the source.

The nature of the series: amyloid nucleation score (Sup35N fusion, yeast selection) (log enrichment); library NNK2; higher = more nucleation; inactive = no reads after selection. In a few lines:
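After 24 hours of induction with 100 μM copper sulfate, psi-negative yeast expressing peptides of 20 random codons fused to Sup35N were grown for 7 days at 30°C on medium lacking adenine and uracil. Input and output plasmid inserts were sequenced with Illumina, and sequences with under 100 input reads were discarded. Scores for nucleation are the DiMSum log enrichment of output over input reads, centred on the mode score of non-aggregating sequences.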

Take AFGKACPGMCMTKFTACTNR: the amyloid nucleation score was 0.569 ± 0.13. For the substance PDHKLARTIYWAPCTMDWVI, the amyloid nucleation score was -0.057 ± 0.61. Consider MSMSHSAGDRDGWIFDHRDV, for which the amyloid nucleation score amounted to 1.46 ± 0.61.

Regarding TNRGCSMKRRKSINPRILGM, the amyloid nucleation score entry was “inactive”.

As for TSRDFYRNAGIARFAYYNSP, the amyloid nucleation score is -1.15 ± 0.23.

Consider YIELMGHWVGTSRKCVSDRS, for which the amyloid nucleation score was -0.243 ± 1.1.

Consider YRVSIMYDAWDGLARWFYRR, for which the amyloid nucleation score worked out at 0.507 ± 0.46. The substance FCVCARWCIVVSGLVCDLRY returned an amyloid nucleation score of -0.323 ± 0.63. For NCYFKLSYEDMIRQCKRLNE the value was 3.44 ± 0.069; for RSLSA, 1.02 ± 0.34. For YSYRVRI, the amyloid nucleation score came out at 3.71 ± 0.056.

Consider VWLCCLCWVQMDLANVNLWL, for which the amyloid nucleation score came to 8.315 ± 0.053. IIVFKEESYIYKTRSVLGSR: the amyloid nucleation score was -0.503 ± 0.56.

In the case of QRYCRA, the amyloid nucleation score worked out at 0.94 ± 0.23. GFSRRGELHVSVYHIRDTFG had an amyloid nucleation score of 4.88 ± 0.081. For IRKCICSWCVECILRNPAKA the value was -0.434 ± 0.4; for RIMTFFVMPDSRRRVDHNQV, 0.074 ± 1. The substance CSWGCNDFRSCLALVMDCHA gave an amyloid nucleation score of 1.02 ± 0.61.

The substance RYNRN registered an amyloid nucleation score of -0.195 ± 0.36.

Substance IQLMEFWLSGGLTVIMGILR registered an amyloid nucleation score of -0.971 ± 0.61. KSFGVDYFFCVKLTSCGIQC gave an amyloid nucleation score of 3.25 ± 0.12. Substance KETTGWLRYIP came in with an amyloid nucleation score of -0.56 ± 0.56. As for CSYFMGLIVILRVKCRYMLK, the amyloid nucleation score was -1.18 ± 0.32.

For PSWGSLCMSQNHMHLEV, the amyloid nucleation score is -0.087 ± 0.42. NLRLDIAFSPWPRSGYNSGS: the amyloid nucleation score was found to be 0.292 ± 0.64. Substance CRYRLYYRCEVLEYLSDFTW came in with an amyloid nucleation score of -0.492 ± 0.56.

With RCYGVRTHGNLKQIMTKMTE, the amyloid nucleation score worked out at 0.602 ± 0.24. The substance LVILAGTVRIVRHGLVALQL yielded an amyloid nucleation score of 0.592 ± 0.22.

The substance STGMRGKYVTFFCSSVIFRQ came in with an amyloid nucleation score of 7.2 ± 0.06.

In turn, ITSVKHCAS showed an amyloid nucleation score of 1.05 ± 0.53. The substance LSDRRFKDLMSTFRNAATYF gave an amyloid nucleation score of 6.34 ± 0.047.

On to APFDMVGVTVLDSPVMYTNA, for which the amyloid nucleation score is 0.512 ± 0.43. LDAERM gave an amyloid nucleation score of 0.306 ± 0.23. As for LFGSVHGLTCVLSGLYCVQH, the amyloid nucleation score amounted to 10.32 ± 0.04. Take LCDGAMRMCGWMKLGVQLGV: the amyloid nucleation score was 2.82 ± 0.15. Consider TLTLCTSSLDC, for which the amyloid nucleation score is 1.1 ± 0.61. The same measure for RWLTGMLDVVPYTFCEEV: “inactive”; for GCYISLHMCLE: 3.84 ± 0.049; for FDNQFTLVVRGIVGTVYWCV: 7.233 ± 0.065. For the substance TSSTSRVDRACPGDSWPDID, the amyloid nucleation score was -0.068 ± 0.42. As for YGLDRIFVSGSMNATMIKHN, the amyloid nucleation score result is “inactive”.

Consider RKEVCTVRNLHSRFRGGAIR, for which the amyloid nucleation score was -0.119 ± 0.55.

Take LRNVRMYDLSLWSRGTRCEG: the amyloid nucleation score is 0.88 ± 0.28. Take YYKQWG: the amyloid nucleation score result is “inactive”. The same measure for RCLLTYSVEYWRIFGTSPDS: 0.157 ± 0.5.

Turning to FCPMVLAFTSRGIATKNCGV, the amyloid nucleation score was found to be 0.566 ± 0.74. HGGFRDFQSLSVPIRYDLYD: the amyloid nucleation score is 1.14 ± 0.2. LLGESRGVDSLQTTLWRSRR had an amyloid nucleation score of 0.334 ± 0.24. In turn, ICQCRSLRGRAYQVLGVNKS had an amyloid nucleation score of 0.731 ± 0.57. For the substance SRAAPDINS, the amyloid nucleation score came out at 0.251 ± 0.25. Turning to EKQKWYYLELREAAQC, the amyloid nucleation score came out at 0.284 ± 0.2.

In the case of MGRTHRTTTPGSRFYTSTAF, the amyloid nucleation score was -0.57 ± 1. For WLVIPWRCSNDRHIWLWELQ the value was 1.55 ± 0.53. For SIAWRLEFIVDDGVLFRCKS, the amyloid nucleation score was -0.563 ± 0.35. As to WYSIIREEAALSYCSSHYKN, the amyloid nucleation score was found to be 2.49 ± 0.15. The substance VPCRSPVSGASKRTYLLINV came in with an amyloid nucleation score of 0.045 ± 0.31.

Substance PSQHSWGWARCLQDCDSMPG returned an amyloid nucleation score of 0.591 ± 0.34. The same measure for GDTAWFKVDQLPRLPNTRLQ: 0.998 ± 0.74; for SKARGLCFLSVLLFISDQST: -1.78 ± 1.1; for CLGKSRYCISDWKFLSLWPN: -0.932 ± 0.55. On to FILPRLIFAGQLSCGFARGV, for which the amyloid nucleation score was -1.17 ± 0.76. For ICKRIFGRYRYLSSEVDCVS, the amyloid nucleation score was -1.54 ± 0.55. The same measure for SCIMECM: -0.108 ± 1.1; for SVVGRYEYIILGTRAPGTSR: 0.272 ± 0.5; for LEVRSAWGHLPFMSPEGL: -1.17 ± 0.44.

The substance LFDLWSVEFC came in with an amyloid nucleation score of -0.392 ± 0.43. On to PPCYALDRFLSGSLTVLSPV, for which the amyloid nucleation score is -0.36 ± 0.35. As for EALYALLSGGASNLKSHRLL, the amyloid nucleation score was determined as 0.26 ± 0.65. The same measure for SHTITSGWCAGWIGFSPICR: 0.932 ± 0.32; for ISQRSNASCVN: 0.966 ± 0.48; for VKGKE: 2.31 ± 0.14. The same measure for FKAILGG: “inactive”. YRMCLLRYT displayed an amyloid nucleation score of -0.936 ± 0.55. Turning to FPFFLHLFNYLLVRCLTVGF, the amyloid nucleation score entry is “inactive”. As to DTKRVSINVRDNVTLRSFSW, the amyloid nucleation score was -0.392 ± 0.33. NGGLLYDI: the amyloid nucleation score result was “inactive”. IVSAKDILRLIYSVCGAGLG: the amyloid nucleation score is -0.264 ± 0.48. As to GIMLLSCFDCGGLSTLGHLA, the amyloid nucleation score worked out at 7.56 ± 0.082.

Substance TLKVCSVLIYLYWN had an amyloid nucleation score of -1.34 ± 0.75.

In turn, CTYVYESRHQGIGVLASLSN showed an amyloid nucleation score of -0.784 ± 0.76. In turn, PDSMGKVIYYKSESCFYSRG registered an amyloid nucleation score of 2.72 ± 0.086. NLNFKDGPGDLTCMRDRAFS displayed an amyloid nucleation score of -0.508 ± 0.63. In turn, MIRLRIVYGTLDMYGLQMYS returned an amyloid nucleation score of 1.46 ± 0.27. On to FKPYF, for which the amyloid nucleation score result is “inactive”. For DSFLLTPDLRDMYEL, the amyloid nucleation score was -0.681 ± 0.26.

LKMKFSYDWGVDTILLCRKA returned an amyloid nucleation score of 0.284 ± 1.1. As to EVSRKTDTGQLLSDHVFFMN, the amyloid nucleation score was -2.23 ± 0.78.

On to VRGLFVLTVLEVS, for which the amyloid nucleation score is -0.161 ± 1.1. Substance EGCRMLNIYLPDFLSFLDTG gave an amyloid nucleation score of -1.16 ± 0.78. With LCDWCVLS, the amyloid nucleation score result is “inactive”. The same measure for MTGSTSKMGRCFWQFICSGL: “inactive”; for RFAFFVYPTYMRMTVTVLSY: “inactive”; for AAPGCFNLKFLS: -0.36 ± 0.74. VVNLETVCIYRKLSYKFQVR: the amyloid nucleation score result is “inactive”.

TFYIYGIHSLA had an amyloid nucleation score of -0.917 ± 0.34. For the substance NNSGSNKSD, the amyloid nucleation score is -0.509 ± 0.78.

As for CCQSFNVNRSTLNNLGRSYL, the amyloid nucleation score turned out to be 0.848 ± 0.16.

As for PAITFSSYQSIANYWRGPRM, the amyloid nucleation score amounted to 7.899 ± 0.026. Take SLPAENSFIEF: the amyloid nucleation score was -1.25 ± 0.39.

As for IVGSDGGNIFTRLGCSAYRE, the amyloid nucleation score is -1.14 ± 0.35. HSSMLLSVFDLNARK registered an amyloid nucleation score of -0.174 ± 0.49. As to STFSYGCSSTGAFCRLLCRM, the amyloid nucleation score came out at 0.516 ± 0.64. Take TFWGTTY: the amyloid nucleation score result was “inactive”.

TNVLYMLWTFKVDERY displayed an amyloid nucleation score of 5.964 ± 0.049.

RSCPFAFGEGG had an amyloid nucleation score of 0.782 ± 0.55. The same measure for VCYMLRNFCDVQHKK: 0.1 ± 0.63; for HSLFRLLRTSVHAEKSWSNS: 2.88 ± 0.063; for RLPHSVSALSLKILGGARAR: 0.02 ± 0.56. IDFKHVL showed an amyloid nucleation score of -0.964 ± 0.39. As to GLSELMKGLLTN, the amyloid nucleation score came out at 0.08 ± 0.79. In turn, NFFNFSDMYRYGNKIWGGAN came in with an amyloid nucleation score of 0.208 ± 1.1. Substance SERTLNLRSKSSPHPCST registered an amyloid nucleation score of 3.86 ± 0.12. As to SSTIGVGRSLFLLMFYRDLI, the amyloid nucleation score was -1.44 ± 1. Substance QSETN returned an amyloid nucleation score of -0.264 ± 0.29. Consider HCSDFDLVSAKWSSQWARNG, for which the amyloid nucleation score was determined as 1.13 ± 0.4.

Substance FRYRIYGGHLTINRIIYSLV yielded an amyloid nucleation score of -0.702 ± 1.1. In turn, IYRLDHRACP displayed an amyloid nucleation score of 1.03 ± 0.38. For FLVHCNILALNTCHLVYL the value was 5.07 ± 0.089; for VICNLDCLEVEGGILDQ, -1.04 ± 1.1.

Substance IEPSHFNGNSASWV yielded an amyloid nucleation score of -0.184 ± 0.63. For the substance FILRGDNLC, the amyloid nucleation score is -1.01 ± 1. NLDGIVRMTN yielded an amyloid nucleation score of -0.543 ± 0.56. Substance TIARVIFNPVLCWKVSSRV showed an amyloid nucleation score of 5.52 ± 0.063.

In turn, IFQRWHIS registered an amyloid nucleation score of -2.67 ± 1.1.

With CNLCSDP, the amyloid nucleation score result is “inactive”. As to LDNWEL, the amyloid nucleation score was 0.145 ± 0.16. The same measure for CITVFAVINMQSAAVSCKQV: 6.72 ± 0.07. ANVENVAYSDTISRSDSDVT returned an amyloid nucleation score of 0.805 ± 0.66. Turning to AYINRHVEWRCTVRTVALSS, the amyloid nucleation score amounted to 0.664 ± 0.38. For the substance PPGFMYLYCGLYAQSSRSSW, the amyloid nucleation score worked out at 0.546 ± 0.5. The substance NRMRVMAWCAILNKELSGGK had an amyloid nucleation score of 0.93 ± 0.51. As to IMSSV, the amyloid nucleation score result is “inactive”.

As to DGYIVFSRNAVNIFSVYFTG, the amyloid nucleation score was found to be 6.212 ± 0.04. The same measure for VPKAWTVWAQVPINWSARQA: 0.737 ± 0.62; for CKRQYHYLIWRMMEMSPGVL: 5.07 ± 0.058; for WSYGLLWPSVKLIPACPPAS: 0.244 ± 0.42. WAWVYGCDGYLIGSSRLANG had an amyloid nucleation score of 0.368 ± 0.25. As for YHRSCFWDYLISDGLKQACH, the amyloid nucleation score was -1.51 ± 0.78. Substance SWGLPKVVIGGLQMRLEVGA yielded an amyloid nucleation score of 0.754 ± 0.39.
